Laboratory results published in publication PMC7401919.
Like-named read-outs stand apart in the source and are kept apart here.

Tests used:
[1] = target: lysyl oxidase (rat (endogenous in RRECs)) (UniProt P16636); assay: co-IP
[2] = target: lysyl oxidase (rat (endogenous in RRECs)) (UniProt P16636); assay: co-IP; remark: listed apart in the source

Sequence of UniProt P16636 (P16636 22-411): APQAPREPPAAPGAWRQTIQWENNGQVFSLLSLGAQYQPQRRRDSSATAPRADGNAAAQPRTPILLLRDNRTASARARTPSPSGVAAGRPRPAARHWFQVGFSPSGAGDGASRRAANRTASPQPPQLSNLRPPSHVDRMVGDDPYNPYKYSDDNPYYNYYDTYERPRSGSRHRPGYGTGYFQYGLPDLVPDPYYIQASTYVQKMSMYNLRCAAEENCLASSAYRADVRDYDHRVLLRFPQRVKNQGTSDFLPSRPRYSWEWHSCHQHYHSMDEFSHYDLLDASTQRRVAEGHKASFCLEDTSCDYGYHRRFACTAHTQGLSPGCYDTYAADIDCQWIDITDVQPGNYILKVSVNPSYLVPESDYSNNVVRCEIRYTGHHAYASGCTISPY

Row | LOX bound to Coll IV in HG medium, % of normal-glucose control [1] | LOX bound to Coll IV in HG medium, % of normal-glucose control [2] | LOX bound to FN in HG medium, % of normal-glucose control [1] | LOX bound to FN in HG medium, % of normal-glucose control [2] | Substance
1 | 144 % of control | 138 % of control | – | – | collagen IV (natural protein)
2 | – | – | 168 % of control | 156 % of control | fibronectin (from UniProt P04937 25-2477) (natural protein)
